Legend:
[1] = molecular target: non-treated H5 of H5N1 strain A/Vietnam/1203/04 (nH5), Protein Sciences (influenza virus H5N1 strain A/Vietnam/1203/04); assay: ELISA, coated nH5 overlayed with 1:2000 diluted antibody
[2] = molecular target: crossbeta H5-0 (dH5-0), H5 of H5N1 strain A/Vietnam/1203/04 stock as supplied by Protein Sciences (influenza virus H5N1 strain A/Vietnam/1203/04); assay: ELISA epitope scanning, immobilized H5 form; scaled
[3] = molecular target: misfolded dH5-III (H5 of A/Vietnam/1203/04, prolonged incubation at 5 C below the melting temperature) (influenza virus H5N1 strain A/Vietnam/1203/04); assay: as above
[4] = molecular target: fdH5-0, ultrafiltrated dH5-0 (H5 of A/Vietnam/1203/04) (influenza virus H5N1 strain A/Vietnam/1203/04); assay: as above
[5] = molecular target: misfolded dH5-I (H5 of A/Vietnam/1203/04, heat cycling at pH 7) (influenza virus H5N1 strain A/Vietnam/1203/04); assay: as above
[6] = molecular target: cdH5-0, crossbeta H5 (A/Vietnam/1203/04) after centrifugation (influenza virus H5N1 strain A/Vietnam/1203/04); assay: as above
[7] = molecular target: misfolded dH5-II (H5 of A/Vietnam/1203/04, heat cycling at pH 2) (influenza virus H5N1 strain A/Vietnam/1203/04); assay: as above
[8] = molecular target: crossbeta H5-0 (dH5-0), H5 of H5N1 strain A/Vietnam/1203/04 stock as supplied by Protein Sciences (influenza virus H5N1 strain A/Vietnam/1203/04); assay: ELISA, immobilized H5 form; normalized to cdH5-0; average of two measurements
[9] = molecular target: misfolded dH5-III (H5 of A/Vietnam/1203/04, prolonged incubation at 5 C below the melting temperature) (influenza virus H5N1 strain A/Vietnam/1203/04); assay: ELISA, immobilized H5 form; normalized to cdH5-0
[10] = molecular target: fdH5-0, ultrafiltrated dH5-0 (H5 of A/Vietnam/1203/04) (influenza virus H5N1 strain A/Vietnam/1203/04); assay: ELISA, immobilized H5 form; normalized to cdH5-0
[11] = molecular target: misfolded dH5-I (H5 of A/Vietnam/1203/04, heat cycling at pH 7) (influenza virus H5N1 strain A/Vietnam/1203/04); assay: ELISA, immobilized H5 form; normalized to cdH5-0
[12] = molecular target: cdH5-0, crossbeta H5 (A/Vietnam/1203/04) after centrifugation (influenza virus H5N1 strain A/Vietnam/1203/04); assay: ELISA, immobilized H5 form; normalized to cdH5-0
[13] = molecular target: misfolded dH5-II (H5 of A/Vietnam/1203/04, heat cycling at pH 2) (influenza virus H5N1 strain A/Vietnam/1203/04); assay: ELISA, immobilized H5 form; normalized to cdH5-0
[14] = molecular target: crossbeta H5-0 (dH5-0), H5 of H5N1 strain A/Vietnam/1203/04 stock as supplied by Protein Sciences (influenza virus H5N1 strain A/Vietnam/1203/04); assay: ELISA, immobilized H5 form, tPA with excess epsilon-amino caproic acid
[15] = molecular target: fdH5-0, ultrafiltrated dH5-0 (H5 of A/Vietnam/1203/04) (influenza virus H5N1 strain A/Vietnam/1203/04); assay: as above
[16] = molecular target: cdH5-0, crossbeta H5 (A/Vietnam/1203/04) after centrifugation (influenza virus H5N1 strain A/Vietnam/1203/04); assay: as above
[17] = molecular target: misfolded dH5-II (H5 of A/Vietnam/1203/04, heat cycling at pH 2) (influenza virus H5N1 strain A/Vietnam/1203/04); assay: as above

Substance	relative affinity kD [2] [a.u.]	relative affinity kD [3] [a.u.]	relative affinity kD [4] [a.u.]	relative affinity kD [5] [a.u.]	relative affinity kD [6] [a.u.]	relative affinity kD [7] [a.u.]	other results
Rockland anti-H5 A/VN/1203/04 mouse monoclonal antibody, catalogue number 200-301-975	102	78	103	47	100	79	ELISA signal at 1:2000 antibody dilution [1]: 1.5
Rockland anti-H5 A/VN/1203/04 mouse monoclonal antibody, catalogue number 200-301-976	88	127	105	0	100	132	
Rockland anti-H5 A/VN/1203/04 mouse monoclonal antibody, catalogue number 200-301-977	98	35	93	0	100	0	
Rockland anti-H5 A/VN/1203/04 mouse monoclonal antibody, catalogue number 200-301-978	85	112	107	115	100	31	
Rockland anti-H5 A/VN/1203/04 mouse monoclonal antibody, catalogue number 200-301-979	103	126	97	125	100	83	
fourth and fifth finger domain of fibronectin (Fn F4-5) with C-terminal FLAG-tag (from UniProt P02751 184-273)							Normalized affinity, kD (%) [8]: 103%; Normalized affinity, kD (%) [9]: 6%; Normalized affinity, kD (%) [10]: 69%; Normalized affinity, kD (%) [11]: 0%; Normalized affinity, kD (%) [12]: 100%; Normalized affinity, kD (%) [13]: 88%
tissue type plasminogen activator (tPA; Actilyse, Boehringer-Ingelheim) (from UniProt P00750 36-562) (enzyme)							Kd [14]: 96 nM; Kd [15]: 342 nM; Kd [16]: 102 nM; Kd [17]: 19 nM
